According to PMC13541077:

Molecular target: recombinant soluble PRRSV-1 Olot/91 glycoprotein 3 ectodomain (sGP3) (PRRSV-1 (Betaarterivirus europensis), strain Olot/91)
Assay: mass photometry; Refeyn MPOne; GP3 at 20 nM in filtered PBS, triplicate; calibrated with BSA, beta-amylase and thyroglobulin

**Q.** For “recombinant soluble PRRSV-1 Olot/91 glycoprotein 3 ectodomain (sGP3) (domain or fragment)”, which stoichiometry N is on record?
**A.** 2
